Results from publication PMC4449314.
Values joined by “and” are separate entries in the source; they are usually repeats but may differ in a detail not shown here. Equal entries are not always repeated.

B1: HA-tagged human DAP12 (full length, both native cysteines), in 293T cells, O43914 22-113 (natural protein)
chain: LRPVQAQAQSDCSCSTVSPGVLAGIVMGDLVLTVLIALAVYFLGRLVPRGRGAAEAATRKQRITETESPYQELQGQRSDVYSDLNTQRPYYK
B2: HA-tagged human DAP12 wild type, in vitro translated with ER microsomes, O43914 22-113 (natural protein)
chain: LRPVQAQAQSDCSCSTVSPGVLAGIVMGDLVLTVLIALAVYFLGRLVPRGRGAAEAATRKQRITETESPYQELQGQRSDVYSDLNTQRPYYK
modifications: here or on the partner: 35S-methionine/cysteine labelled; 35S-methionine/cysteine labelled

Key:
[1] = biological target: HA-tagged human DAP12 (full length, both native cysteines), in 293T cells (human), O43914; assay: non-reducing SDS-PAGE of disulfide-linked products after anti-HA IP; details: remark: other sources report otherwise
[2] = biological target: HA-tagged human DAP12 wild type, in vitro translated with ER microsomes (human), O43914; assay: as above; details: remark: other sources report otherwise

Row | Binder | stoichiometry N [1] | stoichiometry N [2]
1 | B1 | 2 and 3 and 4 | 
2 | B2 |  | 3 and 4
